Laboratory results published in the supplement of paper PMC10724198.
± gives the standard deviation of the averaged measurements.

Tested on: Saccharomyces cerevisiae
Experiment: protein stability index of tFT-peptide fusion (C-terminal peptide) (PSI (0-1 scale)); higher = more stable (slower turnover)
Conditions: genetic background: wild type; temperature: 30 C
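Note: PSI is a weighted mean of sequencing reads over stability bins, variants kept only with over 10 reads, mCherry proximal and sfGFP distal, peptide attached via GGGS linker.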

Row | Sequence | protein stability index
1 | TFSGWYIQGQIV | 0.702 ± 0.16
2 | TFSWISGKPRHT | 0.679 ± 0.041
3 | TGEVPPPRCEGE | 0.638 ± 0.014
4 | TGGRRKNCIIKK | 0.688 ± 0.062
5 | TGKIRWIPAIRS | 0.64 ± 0.039
6 | TGLYWGQIPYSQ | 0.687 ± 0.062
7 | TGPSLDRALLDL | 0.6412 ± 0.002
8 | TGRGSMSNVRVK | 0.706 ± 0.06
9 | TGTATGTEGANY | 0.698 ± 0.022
10 | TGTEKFTMQFKF | 0.673 ± 0.042
11 | TGTVYGGTRRGQ | 0.698 ± 0.075
12 | TGVCKGMRWRGV | 0.683 ± 0.045
13 | THCWQVLPCGLI | 0.723 ± 0.0089
14 | THRAGLGANKGL | 0.696 ± 0.029
15 | THSLRIRESNNT | 0.674 ± 0.014
16 | TKCSPLASRFSC | 0.707 ± 0.016
17 | TKKKKKKNKKQE | 0.683 ± 0.012
18 | TKNTQNNGKDKK | 0.734 ± 0.059
19 | TKQLKGEQERDG | 0.648 ± 0.031
20 | TKRRRKRRGAKK | 0.672 ± 0.014
21 | TKVCWNVDYNVL | 0.697 ± 0.012
22 | TKWAISRLHNSA | 0.64 ± 0.012
23 | TKYIGDGCVCSC | 0.645 ± 0.018
24 | TLCTKCNVFSCC | 0.682 ± 0.062
25 | TLFVAWTDCMSY | 0.6591 ± 0.0061

Row | Sequence | protein stability index
26 | TLIEWSAKGCRR | 0.693 ± 0.047
27 | TLKGERHKKNKR | 0.623 ± 0.035
28 | TLRKTTRHRRNA | 0.737 ± 0.069
29 | TLSLPPLHPPPH | 0.699 ± 0.0063
30 | TLSPPPALASPL | 0.71 ± 0.037
31 | TLTTVLSPHSHR | 0.716 ± 0.0073
32 | TLVALGFIYASG | 0.572 ± 0.0048
33 | TLYKSEQIAFFL | 0.644 ± 0.047
34 | TMLIGTAQAVNN | 0.604 ± 0.026
35 | TNALVGEWVGLG | 0.795 ± 0.11
36 | TNANKKNGRGNT | 0.683 ± 0.041
37 | TNKRKNIRTKQR | 0.638 ± 0.037
38 | TPASAGLACILL | 0.672 ± 0.013
39 | TPGGRTLATALR | 0.676 ± 0.018
40 | TPHAPTATPRDN | 0.727 ± 0.076
41 | TPLAPASPPAAR | 0.717 ± 0.056
42 | TPLPPLPPHPPS | 0.727 ± 0.0087
43 | TPNLQPLPRNLD | 0.765 ± 0.037
44 | TPPCACTPPRAP | 0.686 ± 0.081
45 | TPQSLRDAHGSC | 0.662 ± 0.056
46 | TPRASLSATSRS | 0.719 ± 0.016
47 | TPRTNATAMCTP | 0.72 ± 0.038
48 | TPSYSPPSRHDP | 0.634 ± 0.093
49 | TPTRRIIPHTHP | 0.685 ± 0.086
50 | TQARDTIPGAKV | 0.678 ± 0.02

Row | Sequence | protein stability index
51 | TQEKKGKIRGGI | 0.685 ± 0.0085
52 | TQSPANIIQRKT | 0.672 ± 0.024
53 | TQTLPPPLPPLL | 0.675 ± 0.02
54 | TQWRSRRHLKPQ | 0.72 ± 0.032
55 | TQYINTAHKELK | 0.6677 ± 0.00083
56 | TQYTDNQTPITK | 0.6673 ± 0.0027
57 | TRAKVQSRGSLS | 0.708 ± 0.039
58 | TRCKRNETCTSG | 0.669 ± 0.046
59 | TRECGRLRQAET | 0.723 ± 0.067
60 | TRHPGGERIPTY | 0.743 ± 0.12
61 | TRIRLQKNVITL | 0.683 ± 0.014
62 | TRLGWSWGFAHR | 0.719 ± 0.11
63 | TRREQYSSSNLV | 0.674 ± 0.04
64 | TRRKKKKNTGTK | 0.71 ± 0.022
65 | TRRLEFPEPPMS | 0.708 ± 0.061
66 | TRSGGNGYERVC | 0.667 ± 0.03
67 | TSCFIWGCACCR | 0.656 ± 0.058
68 | TSEIGKEINYRK | 0.66 ± 0.017
69 | TSFLRSPPPPRL | 0.763 ± 0.012
70 | TSGRTLVNDKCT | 0.716 ± 0.012
71 | TSIFRIICLTDR | 0.642 ± 0.022
72 | TSKPGLQIPRRE | 0.747 ± 0.047
73 | TSKTLHKTNNIK | 0.698 ± 0.028
74 | TSPLSPAPPPPR | 0.641 ± 0.083
75 | TSPPPGTHTLQP | 0.626 ± 0.023

Row | Sequence | protein stability index
76 | TSQASIRDLTNK | 0.579 ± 0.016
77 | TTPHTSFTILHP | 0.696 ± 0.087
78 | TTPRAILPLSSI | 0.67 ± 0.043
79 | TTSRTRVAHPPI | 0.622 ± 0.071
80 | TVGSVAREGPFW | 0.696 ± 0.025
81 | TVLTDKKGRVRS | 0.71 ± 0.0093
82 | TVMSDCQTDQAS | 0.657 ± 0.065
83 | TVNHKHALQFAT | 0.681 ± 0.091
84 | TVRLAPCPLSDT | 0.744 ± 0.075
85 | TVVSFMFCPSLT | 0.667 ± 0.061
86 | TWGLGVFSIMDC | 0.633 ± 0.052
87 | TWPGRAGGRGAT | 0.721 ± 0.1
88 | TWRWVGGRWSGL | 0.5601 ± 0.0026
89 | TYATPSLVFPLL | 0.695 ± 0.011
90 | TYPSWIYELNKT | 0.753 ± 0.077
91 | TYQVVPRDAPYV | 0.672 ± 0.025
92 | TYVSKCRLYEPA | 0.644 ± 0.011
93 | VAAFGGGRTNGV | 0.724 ± 0.024
94 | VAAQRYAQRLFT | 0.652 ± 0.021
95 | VACYVDWSQNHR | 0.728 ± 0.06
96 | VAGFVPSWVALW | 0.643 ± 0.1
97 | VALEFLGWVGLS | 0.684 ± 0.094
98 | VALHRIPVTVSR | 0.578 ± 0.026
99 | VALLKCTGTAQI | 0.61 ± 0.033
100 | VAPDSARVFHFV | 0.64 ± 0.025

Row | Sequence | protein stability index
101 | VARCWGGLGLAR | 0.692 ± 0.047
102 | VARPEWWSGGGS | 0.727 ± 0.03
103 | VARPMHFIRYGK | 0.716 ± 0.018
104 | VARRGLFLSISW | 0.596 ± 0.088
105 | VASFLRFRLPPQ | 0.71 ± 0.083
106 | VASPAPALRPPL | 0.746 ± 0.093
107 | VAVDGSDQGGTR | 0.64 ± 0.079
108 | VAVGHWGIVPLW | 0.725 ± 0.08
109 | VAVMPKPLGVVR | 0.552 ± 0.046
110 | VAVWGAIRHASN | 0.718 ± 0.033
111 | VCARAGRALEDS | 0.674 ± 0.08
112 | VCAVRVGGGGEG | 0.601 ± 0.04
113 | VCFLFGLVGFGS | 0.597 ± 0.0085
114 | VCGGRLVGWGGW | 0.729 ± 0.1
115 | VCGSGGGCWGGG | 0.622 ± 0.0096
116 | VCICDRLASRDV | 0.733 ± 0.067
117 | VCNFQIGGDRGV | 0.71 ± 0.052
118 | VCRCWGGKGQDS | 0.71 ± 0.012
119 | VCRGRGGEGIGW | 0.721 ± 0.096
120 | VCRVGGVMAGDT | 0.669 ± 0.049
121 | VCSLTFFGLCRP | 0.69 ± 0.025
122 | VCSYISGRKSVL | 0.568 ± 0.0048
123 | VCVCSVPNLGLW | 0.675 ± 0.029
124 | VCVSCTPALLFL | 0.608 ± 0.056
125 | VDGRIYIGIISR | 0.677 ± 0.032

Row | Sequence | protein stability index
126 | VDSPFPTPLPLI | 0.685 ± 0.087
127 | VDWVEAYVCVGV | 0.538 ± 0.024
128 | VEASRSCTKLDG | 0.675 ± 0.02
129 | VEDRTTNVLNIT | 0.682 ± 0.027
130 | VEGFVPEDGKEE | 0.684 ± 0.024
131 | VELEPPVCVFLL | 0.6391 ± 0.0017
132 | VEQSYKESVNLD | 0.682 ± 0.017
133 | VESDREPIFGCA | 0.65467 ± 0.00014
134 | VEVRVRCVGGRV | 0.703 ± 0.068
135 | VFACDTRHWSFD | 0.796 ± 0.019
136 | VFARKARGFDDV | 0.7188 ± 0.0065
137 | VFAVGRPGRGVV | 0.648 ± 0.014
138 | VFGPRSIARGAI | 0.727 ± 0.12
139 | VFHLFSAVSLRL | 0.592 ± 0.0084
140 | VFITSLWTPLLL | 0.617 ± 0.019
141 | VFLRGSVLGLCI | 0.606 ± 0.034
142 | VFLRSGCSGGGE | 0.799 ± 0.063
143 | VFLTASVLVAPF | 0.575 ± 0.015
144 | VFPPTPPTVPRG | 0.727 ± 0.0077
145 | VFPWRDSNLYAS | 0.713 ± 0.021
146 | VFRPFVLPLMFP | 0.611 ± 0.053
